Results on 11 molecules are retold here after paper PMC5400505, “Dissection of the interaction between the intrinsically disordered YAP protein and the transcription factor TEAD” (eLife, 2017).

Substitutions are numbered along the chain they refer to. Numbers in names are those of the source.

B1: N-terminally V5-tagged hTEAD4 Asp272Ala (natural protein, human, UniProt Q15561 1-434, looked up)
chain: MEGTAGTITSNEWSSPTSPEGSTASGGSQALDKPIDNDAEGVWSPDIEQSFQEALAIYPPCGRRKIILSDEGKMYGRNELIARYIKLRTGKTRTRKQVSSHIQVLARRKAREIQAKLKDQAAKDKALQSMAAMSSAQIISATAFHSSMALARGPGRPAVSGFWQGALPGQAGTSHDVKPFSQQTYAVQPPLPLPGFESPAGPAPSPSAPPAPPWQGRSVASSKLWMLEFSAFLEQQQDPDTYNKHLFVHIGQSSPSYSDPYLEAVDIRQIYAKFPEKKGGLKDLFERGPSNAFFLVKFWADLNTNIEDEGSSFYGVSSQYESPENMIITCSTKVCSFGKQVVEKVETEYARYENGHYSYRIHRSPLCEYMINFIHKLKHLPEKYMMNSVLENFTILQVVTNRDTQETLLCIAYVFEVSASEHGAQHHIYRLVKE
B2: wt hYAP^50-171 (domain or fragment, human, UniProt P46937-1 50-171, looked up)
chain: AGHQIVHVRGDSETDLEALFNAVMNPKTANVPQTVPMRLRKLPDSFFKPPEPKSHSRQASTDAGTAGALTPQHVRAHSSPASLQLGAVSPGTLTPTGVVSGPAATPTAQHLRQSSFEIPDDV
notes: YAP (Yes-associated protein), human, residues 50-171 of NM_001130145.2; also called hYAP wt; Wild type; source: E. coli NiCo21 (DE3), purified (HisTrap, tag cleaved by HRV 3C protease, Resource S, Superdex 75); not shown: His6, N-terminal, cleaved
B3: hYAP^50-171 Phe96Ala (domain or fragment, human, UniProt P46937-1 50-171, looked up)
chain: B2 chain with F47A
notes: YAP (Yes-associated protein), human, residues 50-171 of NM_001130145.2; also called hYAP Phe96Ala; source: E. coli NiCo21 (DE3), purified (HisTrap, tag cleaved by HRV 3C protease, Resource S, Superdex 75); not shown: His6, N-terminal, cleaved
B4: hYAP^50-171 Phe95Ala (domain or fragment, human, UniProt P46937-1 50-171, looked up)
chain: B2 chain with F46A
notes: YAP (Yes-associated protein), human, residues 50-171 of NM_001130145.2; also called hYAP Phe95Ala; source: E. coli NiCo21 (DE3), purified (HisTrap, tag cleaved by HRV 3C protease, Resource S, Superdex 75); not shown: His6, N-terminal, cleaved
B5: hYAP^50-171 Met86Ala (domain or fragment, human, UniProt P46937-1 50-171, looked up)
chain: B2 chain with M37A
notes: YAP (Yes-associated protein), human, residues 50-171 of NM_001130145.2; also called hYAP Met86Ala; source: E. coli NiCo21 (DE3), purified (HisTrap, tag cleaved by HRV 3C protease, Resource S, Superdex 75); not shown: His6, N-terminal, cleaved
B6: hYAP^50-171 Phe69Ala (domain or fragment, human, UniProt P46937-1 50-171, looked up)
chain: B2 chain with F20A
notes: YAP (Yes-associated protein), human, residues 50-171 of NM_001130145.2; also called hYAP Phe69Ala; source: E. coli NiCo21 (DE3), purified (HisTrap, tag cleaved by HRV 3C protease, Resource S, Superdex 75); not shown: His6, N-terminal, cleaved
B7: hYAP^50-171 Arg89Ala (domain or fragment, human, UniProt P46937-1 50-171, looked up)
chain: B2 chain with R40A
notes: YAP (Yes-associated protein), human, residues 50-171 of NM_001130145.2; also called hYAP Arg89Ala; R89A; source: E. coli NiCo21 (DE3), purified (HisTrap, tag cleaved by HRV 3C protease, Resource S, Superdex 75); not shown: His6, N-terminal, cleaved
B8: hYAP^50-171 Leu65Ala (domain or fragment, human, UniProt P46937-1 50-171, looked up)
chain: B2 chain with L16A
notes: YAP (Yes-associated protein), human, residues 50-171 of NM_001130145.2; also called hYAP Leu65Ala; source: E. coli NiCo21 (DE3), purified (HisTrap, tag cleaved by HRV 3C protease, Resource S, Superdex 75); not shown: His6, N-terminal, cleaved
B9: hYAP^50-171 Leu91Ala (domain or fragment, human, UniProt P46937-1 50-171, looked up)
chain: B2 chain with L42A
notes: YAP (Yes-associated protein), human, residues 50-171 of NM_001130145.2; also called hYAP Leu91Ala; source: E. coli NiCo21 (DE3), purified (HisTrap, tag cleaved by HRV 3C protease, Resource S, Superdex 75); not shown: His6, N-terminal, cleaved
B10: hYAP^50-171 Ser94Ala (domain or fragment, human, UniProt P46937-1 50-171, looked up)
chain: B2 chain with S45A
notes: YAP (Yes-associated protein), human, residues 50-171 of NM_001130145.2; also called hYAP Ser94Ala; source: E. coli NiCo21 (DE3), purified (HisTrap, tag cleaved by HRV 3C protease, Resource S, Superdex 75); not shown: His6, N-terminal, cleaved
B11: hYAP^50-171 Leu68Ala (domain or fragment, human, UniProt P46937-1 50-171, looked up)
chain: B2 chain with L19A
notes: YAP (Yes-associated protein), human, residues 50-171 of NM_001130145.2; also called hYAP Leu68Ala; source: E. coli NiCo21 (DE3), purified (HisTrap, tag cleaved by HRV 3C protease, Resource S, Superdex 75); not shown: His6, N-terminal, cleaved

The target in one assay is wt hYAP (full length) (human, UniProt P46937 1-504). The experiment in a line: cell-based or functional assay.
Sequence of wt hYAP (full length) (P46937 whole entry): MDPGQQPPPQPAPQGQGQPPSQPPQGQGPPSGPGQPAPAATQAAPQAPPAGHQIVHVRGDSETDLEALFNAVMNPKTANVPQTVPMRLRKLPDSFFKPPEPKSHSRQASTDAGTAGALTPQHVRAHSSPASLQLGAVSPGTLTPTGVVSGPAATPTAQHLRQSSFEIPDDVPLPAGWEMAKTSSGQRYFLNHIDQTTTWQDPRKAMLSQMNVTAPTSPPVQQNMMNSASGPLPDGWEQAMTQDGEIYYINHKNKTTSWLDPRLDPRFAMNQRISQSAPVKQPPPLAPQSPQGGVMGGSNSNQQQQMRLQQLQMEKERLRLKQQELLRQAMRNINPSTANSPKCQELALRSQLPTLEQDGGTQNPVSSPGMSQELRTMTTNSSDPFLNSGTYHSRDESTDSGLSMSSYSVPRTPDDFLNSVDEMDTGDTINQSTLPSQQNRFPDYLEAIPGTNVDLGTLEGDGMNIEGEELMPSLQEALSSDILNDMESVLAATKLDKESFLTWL
Conditions: not given
For B1, the “MCAT_Luc reporter luciferase activity in HEK293::MCAT_Luc cells co-transfected with wt hYAP; against wt hTEAD4” value was about 4 fold reduction.

Another assay deals with T1, N-Avitagged wt hTEAD4^217-434 (human, UniProt Q15561 217-434, acylated at Cys367 (100%)).
T1 construct: TEAD4 (TEA/ATTS domain transcription factor 4), human, residues 217-434; held on streptavidin (SA) chips; also called Wild type; source: purified; not shown: Avitag, N-terminal, kept
T1 sequence (Q15561 217-434): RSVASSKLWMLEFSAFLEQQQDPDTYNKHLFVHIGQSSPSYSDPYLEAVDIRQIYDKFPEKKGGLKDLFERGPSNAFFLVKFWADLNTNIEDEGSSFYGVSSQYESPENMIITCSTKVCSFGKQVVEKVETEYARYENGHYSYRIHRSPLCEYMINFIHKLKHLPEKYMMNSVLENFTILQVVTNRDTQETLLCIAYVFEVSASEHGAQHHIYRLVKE
The experiment in a line: SPR; N-Avitagged hTEAD4^217-434 proteins immobilised on Series S Sensor Chip SA, YAP^50-171 proteins as analyte; Biacore T200; 25°C (298 K); 50 mM HEPES, 100 mM KCl, 0.25 mM TCEP, 1 mM EDTA, 0.05% Tween 20, 0.05% BSA, 2% DMSO, pH 7.4; Kd from equilibrium data (Kd^eq); upper limit for Kd^eq 200 µM. As to conditions: both partners purified.
For B2, the affinity, expressed as Kd, was 0.018 µM.

For B3, the Kd came to 4.75 µM. Molecule B4 registered a Kd of 26 µM. The same measure, in the same setting: to B5 belongs 2.08 µM. The molecule B6 returned a Kd of 6.45 µM. Same read-out and setting: the same measure for B7: 27.4 µM; for B8: 0.794 µM. On to B9, for which the Kd stood at 30.6 µM. Still for that read-out and setting: to B10 belongs 5.62 µM.

With B11, the dissociation constant (Kd) is 0.464 µM.
